Measured values published in patent US12630600B2 (MEDIMMUNE LIMITED, priority 2022, dated 2026).
Starred links: 1 amine or outer side, 2 acyl side, 3 side chain; linkers in the order of their positions; H or OH if unused. Non-standard residues stand in square brackets, D forms with d. Groups on a side chain read outwards from the residue. No end group written: not given here. *: point of attachment. C20 diacid = O=C(O)CCCCCCCCCCCCCCCCCCC(=O)*; C18 diacid = O=C(O)CCCCCCCCCCCCCCCCC(=O)*; γGlu = O=C(O)[C@H](CCC(=O)[*:2])N[*:1]; αMeF = C[C@](N)(Cc1ccccc1)C(=O)O; AEEA = NCCOCCOCC(=O)O; Aib = CC(C)(N)C(=O)O

Legend:
Experiment in all cases: cell-based or functional assay
human GLP-1 receptor [1] = target: human GLP-1 receptor (human, UniProt P43220)
human glucagon receptor [2] = target: human glucagon receptor (human, UniProt P47871)
human glucagon receptor [3] = target: human glucagon receptor (human, UniProt P47871); remark: listed apart in the source
human GLP-1 receptor [4] = target: human GLP-1 receptor (human, UniProt P43220); remark: listed apart in the source

| cAMP production, hGLP-1R EC50 (pM) (human GLP-1 receptor [1]) | cAMP production, hGluc-R EC50 (pM) (human glucagon receptor [2]) | hGluc-R EC50 (pM) (human glucagon receptor [3]) | hGLP-1R EC50 (pM) (human GLP-1 receptor [4]) | Binder |
| --- | --- | --- | --- | --- |
| 15.3 | 43.5 | – | – | H[Aib]QGTFTSDVSK[αMeF]LDSK([AEEA-AEEA-γGlu-C18 diacid])RAQDFVRWLEA[Aib]G-OH (N-terminus assumed; SMILES CC(C)C[C@H](NC(=O)[C@H](Cc1c[nH]c2ccccc12)NC(=O)[C@H](CCCNC(=N)N)NC(=O)[C@@H](NC(=O)[C@H](Cc1ccccc1)NC(=O)[C@H](CC(=O)O)NC(=O)[C@H](CCC(N)=O)NC(=O)[C@H](C)NC(=O)[C@H](CCCNC(=N)N)NC(=O)[C@H](CCCCNC(=O)COCCOCCNC(=O)COCCOCCNC(=O)CC[C@H](NC(=O)CCCCCCCCCCCCCCCCC(=O)O)C(=O)O)NC(=O)[C@H](CO)NC(=O)[C@H](CC(=O)O)NC(=O)[C@H](CC(C)C)NC(=O)[C@](C)(Cc1ccccc1)NC(=O)[C@H](CCCCN)NC(=O)[C@H](CO)NC(=O)[C@@H](NC(=O)[C@H](CC(=O)O)NC(=O)[C@H](CO)NC(=O)[C@@H](NC(=O)[C@H](Cc1ccccc1)NC(=O)[C@@H](NC(=O)CNC(=O)[C@H](CCC(N)=O)NC(=O)C(C)(C)NC(=O)[C@@H](N)Cc1c[nH]cn1)[C@@H](C)O)[C@@H](C)O)C(C)C)C(C)C)C(=O)N[C@@H](CCC(=O)O)C(=O)N[C@@H](C)C(=O)NC(C)(C)C(=O)NCC(=O)O) [Peptide 147] |
| 22.6 | 4590 | – | – | H[Aib]QGTFTSDVSK[αMeF]LDSK([AEEA-AEEA-γGlu-C18 diacid])RAQDFVRWLASRGI-OH (N-terminus assumed; SMILES CC[C@H](C)[C@H](NC(=O)CNC(=O)[C@H](CCCNC(=N)N)NC(=O)[C@H](CO)NC(=O)[C@H](C)NC(=O)[C@H](CC(C)C)NC(=O)[C@H](Cc1c[nH]c2ccccc12)NC(=O)[C@H](CCCNC(=N)N)NC(=O)[C@@H](NC(=O)[C@H](Cc1ccccc1)NC(=O)[C@H](CC(=O)O)NC(=O)[C@H](CCC(N)=O)NC(=O)[C@H](C)NC(=O)[C@H](CCCNC(=N)N)NC(=O)[C@H](CCCCNC(=O)COCCOCCNC(=O)COCCOCCNC(=O)CC[C@H](NC(=O)CCCCCCCCCCCCCCCCC(=O)O)C(=O)O)NC(=O)[C@H](CO)NC(=O)[C@H](CC(=O)O)NC(=O)[C@H](CC(C)C)NC(=O)[C@](C)(Cc1ccccc1)NC(=O)[C@H](CCCCN)NC(=O)[C@H](CO)NC(=O)[C@@H](NC(=O)[C@H](CC(=O)O)NC(=O)[C@H](CO)NC(=O)[C@@H](NC(=O)[C@H](Cc1ccccc1)NC(=O)[C@@H](NC(=O)CNC(=O)[C@H](CCC(N)=O)NC(=O)C(C)(C)NC(=O)[C@@H](N)Cc1c[nH]cn1)[C@@H](C)O)[C@@H](C)O)C(C)C)C(C)C)C(=O)O) [Peptide 145] |
| – | – | 407 | – | H[Aib]HGS[αMeF]TSDVSK[αMeF]LDSRAAK([AEEA-AEEA-γGlu-γGlu-C20 diacid])D[αMeF]VQ[Aib]IANTGG-NH2 (N-terminus assumed; SMILES CC[C@H](C)[C@H](NC(=O)C(C)(C)NC(=O)[C@H](CCC(N)=O)NC(=O)[C@@H](NC(=O)[C@](C)(Cc1ccccc1)NC(=O)[C@H](CC(=O)O)NC(=O)[C@H](CCCCNC(=O)COCCOCCNC(=O)COCCOCCNC(=O)CC[C@H](NC(=O)CC[C@H](NC(=O)CCCCCCCCCCCCCCCCCCC(=O)O)C(=O)O)C(=O)O)NC(=O)[C@H](C)NC(=O)[C@H](C)NC(=O)[C@H](CCCNC(=N)N)NC(=O)[C@H](CO)NC(=O)[C@H](CC(=O)O)NC(=O)[C@H](CC(C)C)NC(=O)[C@](C)(Cc1ccccc1)NC(=O)[C@H](CCCCN)NC(=O)[C@H](CO)NC(=O)[C@@H](NC(=O)[C@H](CC(=O)O)NC(=O)[C@H](CO)NC(=O)[C@@H](NC(=O)[C@](C)(Cc1ccccc1)NC(=O)[C@H](CO)NC(=O)CNC(=O)[C@H](Cc1c[nH]cn1)NC(=O)C(C)(C)NC(=O)[C@@H](N)Cc1c[nH]cn1)[C@@H](C)O)C(C)C)C(C)C)C(=O)N[C@@H](C)C(=O)N[C@@H](CC(N)=O)C(=O)N[C@H](C(=O)NCC(=O)NCC(N)=O)[C@@H](C)O) [Peptide 233] |
| – | – | – | 601 | H[Aib]HGS[αMeF]TSDVSK[αMeF]LDSR[Aib]AK([AEEA-AEEA-γGlu-γGlu-C18 diacid])D[αMeF]VESIANT-NH2 [Peptide 250] |
| – | – | 8.14 | 29.9 | H[Aib]QGT[αMeF]TSDVSK[αMeF]LDSRAAK([AEEA-AEEA-γGlu-C18 diacid])DFVQWIANT-NH2 (N-terminus assumed; SMILES CC[C@H](C)[C@H](NC(=O)[C@H](Cc1c[nH]c2ccccc12)NC(=O)[C@H](CCC(N)=O)NC(=O)[C@@H](NC(=O)[C@H](Cc1ccccc1)NC(=O)[C@H](CC(=O)O)NC(=O)[C@H](CCCCNC(=O)COCCOCCNC(=O)COCCOCCNC(=O)CC[C@H](NC(=O)CCCCCCCCCCCCCCCCC(=O)O)C(=O)O)NC(=O)[C@H](C)NC(=O)[C@H](C)NC(=O)[C@H](CCCNC(=N)N)NC(=O)[C@H](CO)NC(=O)[C@H](CC(=O)O)NC(=O)[C@H](CC(C)C)NC(=O)[C@](C)(Cc1ccccc1)NC(=O)[C@H](CCCCN)NC(=O)[C@H](CO)NC(=O)[C@@H](NC(=O)[C@H](CC(=O)O)NC(=O)[C@H](CO)NC(=O)[C@@H](NC(=O)[C@](C)(Cc1ccccc1)NC(=O)[C@@H](NC(=O)CNC(=O)[C@H](CCC(N)=O)NC(=O)C(C)(C)NC(=O)[C@@H](N)Cc1c[nH]cn1)[C@@H](C)O)[C@@H](C)O)C(C)C)C(C)C)C(=O)N[C@@H](C)C(=O)N[C@@H](CC(N)=O)C(=O)N[C@H](C(N)=O)[C@@H](C)O) [Peptide 205] |
| 24.6 | 1630 | – | – | H[Aib]QGTFTSDVSK[αMeF]LDSK([AEEA-AEEA-γGlu-C18 diacid])RAQDFVRWLASR-OH (N-terminus assumed; SMILES CC(C)C[C@H](NC(=O)[C@H](Cc1c[nH]c2ccccc12)NC(=O)[C@H](CCCNC(=N)N)NC(=O)[C@@H](NC(=O)[C@H](Cc1ccccc1)NC(=O)[C@H](CC(=O)O)NC(=O)[C@H](CCC(N)=O)NC(=O)[C@H](C)NC(=O)[C@H](CCCNC(=N)N)NC(=O)[C@H](CCCCNC(=O)COCCOCCNC(=O)COCCOCCNC(=O)CC[C@H](NC(=O)CCCCCCCCCCCCCCCCC(=O)O)C(=O)O)NC(=O)[C@H](CO)NC(=O)[C@H](CC(=O)O)NC(=O)[C@H](CC(C)C)NC(=O)[C@](C)(Cc1ccccc1)NC(=O)[C@H](CCCCN)NC(=O)[C@H](CO)NC(=O)[C@@H](NC(=O)[C@H](CC(=O)O)NC(=O)[C@H](CO)NC(=O)[C@@H](NC(=O)[C@H](Cc1ccccc1)NC(=O)[C@@H](NC(=O)CNC(=O)[C@H](CCC(N)=O)NC(=O)C(C)(C)NC(=O)[C@@H](N)Cc1c[nH]cn1)[C@@H](C)O)[C@@H](C)O)C(C)C)C(C)C)C(=O)N[C@@H](C)C(=O)N[C@@H](CO)C(=O)N[C@@H](CCCNC(=N)N)C(=O)O) [Peptide 146] |
| 40.2 | 568 | – | – | H[Aib]QGTFTSDVSK[αMeF]LDSK([AEEA-AEEA-γGlu-C18 diacid])RAQDFVRWIAE[Aib]G-OH (N-terminus assumed; SMILES CC[C@H](C)[C@H](NC(=O)[C@H](Cc1c[nH]c2ccccc12)NC(=O)[C@H](CCCNC(=N)N)NC(=O)[C@@H](NC(=O)[C@H](Cc1ccccc1)NC(=O)[C@H](CC(=O)O)NC(=O)[C@H](CCC(N)=O)NC(=O)[C@H](C)NC(=O)[C@H](CCCNC(=N)N)NC(=O)[C@H](CCCCNC(=O)COCCOCCNC(=O)COCCOCCNC(=O)CC[C@H](NC(=O)CCCCCCCCCCCCCCCCC(=O)O)C(=O)O)NC(=O)[C@H](CO)NC(=O)[C@H](CC(=O)O)NC(=O)[C@H](CC(C)C)NC(=O)[C@](C)(Cc1ccccc1)NC(=O)[C@H](CCCCN)NC(=O)[C@H](CO)NC(=O)[C@@H](NC(=O)[C@H](CC(=O)O)NC(=O)[C@H](CO)NC(=O)[C@@H](NC(=O)[C@H](Cc1ccccc1)NC(=O)[C@@H](NC(=O)CNC(=O)[C@H](CCC(N)=O)NC(=O)C(C)(C)NC(=O)[C@@H](N)Cc1c[nH]cn1)[C@@H](C)O)[C@@H](C)O)C(C)C)C(C)C)C(=O)N[C@@H](C)C(=O)N[C@@H](CCC(=O)O)C(=O)NC(C)(C)C(=O)NCC(=O)O) [Peptide 148] |
| 8.71 | 2650 | – | – | H[Aib]QGTFTSDVSK[αMeF]LDSK([AEEA-AEEA-γGlu-C18 diacid])RAQDFVRWVVE[Aib]G-OH (N-terminus assumed; SMILES CC(C)C[C@H](NC(=O)[C@](C)(Cc1ccccc1)NC(=O)[C@H](CCCCN)NC(=O)[C@H](CO)NC(=O)[C@@H](NC(=O)[C@H](CC(=O)O)NC(=O)[C@H](CO)NC(=O)[C@@H](NC(=O)[C@H](Cc1ccccc1)NC(=O)[C@@H](NC(=O)CNC(=O)[C@H](CCC(N)=O)NC(=O)C(C)(C)NC(=O)[C@@H](N)Cc1c[nH]cn1)[C@@H](C)O)[C@@H](C)O)C(C)C)C(=O)N[C@@H](CC(=O)O)C(=O)N[C@@H](CO)C(=O)N[C@@H](CCCCNC(=O)COCCOCCNC(=O)COCCOCCNC(=O)CC[C@H](NC(=O)CCCCCCCCCCCCCCCCC(=O)O)C(=O)O)C(=O)N[C@@H](CCCNC(=N)N)C(=O)N[C@@H](C)C(=O)N[C@@H](CCC(N)=O)C(=O)N[C@@H](CC(=O)O)C(=O)N[C@@H](Cc1ccccc1)C(=O)N[C@H](C(=O)N[C@@H](CCCNC(=N)N)C(=O)N[C@@H](Cc1c[nH]c2ccccc12)C(=O)N[C@H](C(=O)N[C@H](C(=O)N[C@@H](CCC(=O)O)C(=O)NC(C)(C)C(=O)NCC(=O)O)C(C)C)C(C)C)C(C)C) [Peptide 149] |
